Data published in patent US5731183.

Key:
[1] = molecular target: dimethylcasein
[2] = molecular target: dimethylcasein; remark: listed apart in the source
[3] = molecular target: dimethylcasein; remark: listed apart in the source

Bacillus subtilis AJ12866-derived transglutaminase (enzyme)
Relative Activity (14C-putrescine bonded to dimethylcasein, 37° C., 30 minutes) (relative activity) [1]: 10200

fused protein of an 11-residue lacZ-derived peptide and the Bacillus-derived TG, expressed from pBSTG75-11 in Escherichia coli JM109 (enzyme)
TG activity (dpm) (14C-putrescine caught by dimethylcasein) [2]: 496 dpm

B1: Bacillus subtilis AJ1307-derived transglutaminase (enzyme)
chain: MIIVSGQLLRPQDIENWQIDQNLNPLLKEMIETPVQFDYHSIAELMFELKLRMNIVAAAKTLHKSGAKFATFLKTYGNTTYWRVSPEGALELKYRMPPSKAIRDIAENGPFYAFECATAIVIIYYLALIDTIGEDKFNASFDRIILYDWHYEKLPIYTETGHHFFLGDCLYFKNPEFDPQKAQWRGENVILLGEDKYFAHGLGILNGKQIIDKLNSFRKKGALQSAYLLSQATRLDVPSLFR
relative TG activity (14C-putrescine bonded to dimethylcasein, 37° C., pH 7.5) (dpm/mg/30 min) [3]: 25000
